Measured values from patent publication US20100022624.

Biological target: α-tubulin (human, endogenous)

B1: HDAC6 (human, endogenous) (protein)
chain: MTSTGQDSTTTRQRRSRQNPQSPPQDSSVTSKRNIKKGAVPRSIPNLAEVKKKGKMKKLGQAMEEDLIVGLQGMDLNLEAEALAGTGLVLDEQLNEFHCLWDDSFPEGPERLHAIKEQLIQEGLLDRCVSFQARFAEKEELMLVHSLEYIDLMETTQYMNEGELRVLADTYDSVYLHPNSYSCACLASGSVLRLVDAVLGAEIRNGMAIIRPPGHHAQHSLMDGYCMFNHVAVAARYAQQKHRIRRVLIVDWDVHHGQGTQFTFDQDPSVLYFSIHRYEQGRFWPHLKASNWSTTGFGQGQGYTINVPWNQVGMRDADYIAAFLHVLLPVALEFQPQLVLVAAGFDALQGDPKGEMAATPAGFAQLTHLLMGLAGGKLILSLEGGYNLRALAEGVSASLHTLLGDPCPMLESPGAPCRSAQASVSCALEALEPFWEVLVRSTETVERDNMEEDNVEESEEEGPWEPPVLPILTWPVLQSRTGLVYDQNMMNHCNLWDSHHPEVPQRILRIMCRLEELGLAGRCLTLTPRPATEAELLTCHSAEYVGHLRATEKMKTRELHRESSNFDSIYICPSTFACAQLATGAACRLVEAVLSGEVLNGAAVVRPPGHHAEQDAACGFCFFNSVAVAARHAQTISGHALRILIVDWDVHHGNGTQHMFEDDPSVLYVSLHRYDHGTFFPMGDEGASSQIGRAAGTGFTVNVAWNGPRMGDADYLAAWHRLVLPIAYEFNPELVLVSAGFDAARGDPLGGCQVSPEGYAHLTHLLMGLASGRIILILEGGYNLTSISESMAACTRSLLGDPPPLLTLPRPPLSGALASITETIQVHRRYWRSLRVMKVEDREGPSSSKLVTKKAPQPAKPRLAERMTTREKKVLEAGMGKVTSASFGEESTPGQTNSETAVVALTQDQPSEAATGGATLAQTISEAAIGGAMLGQTTSEEAVGGATPDQTTSEETVGGAILDQTTSEDAVGGATLGQTTSEEAVGGATLAQTTSEAAMEGATLDQTTSEEAPGGTELIQTPLASSTDHQTPPTSPVQGTTPQISPSTLIGSLRTLELGSESQGASESQAPGEENLLGEAAGGQDMADSMLMQGSRGLTDQAIFYAVTPLPWCPHLVAVCPIPAAGLDVTQPCGDCGTIQENWVCLSCYQVYCGRYINGHMLQHHGNSGHPLVLSYIDLSAWCYYCQAYVHHQALLDVKNIAHQNKFGEDMPHPH
amount of acetylated α-tubulin (immunoblot) after HDAC6 siRNA: only HSMCs transfected with siRNAs specific for HDAC6 displayed increased levels of acetylated α-tubulin
